Laboratory results: publication PMC7830388
Blank lines part the entries; values can stand above or below the substance they belong to.

Legend:
[1] = biological target: T1, TBP;TFB (Pyrococcus furiosus?;Pyrococcus furiosus?) (UniProt P62000+P61998); assay: DNase I footprinting; details: EMSA: 20 nM DNA, 40 mM HEPES pH 7.4, 80 mM (NH4)2SO4, 670 uM DTT, 20 ug/ml BSA, 6.7% glycerol, 50 ng HindIII-digested lambda DNA, 5 min 70 C; DNase I: 4.4 nM …
T1 sequence 1: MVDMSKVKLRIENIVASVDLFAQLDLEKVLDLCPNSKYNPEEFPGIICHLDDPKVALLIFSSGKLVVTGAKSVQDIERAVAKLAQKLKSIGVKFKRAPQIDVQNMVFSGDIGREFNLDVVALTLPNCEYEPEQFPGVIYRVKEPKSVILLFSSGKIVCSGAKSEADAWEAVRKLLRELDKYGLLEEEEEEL
T1 sequence 2: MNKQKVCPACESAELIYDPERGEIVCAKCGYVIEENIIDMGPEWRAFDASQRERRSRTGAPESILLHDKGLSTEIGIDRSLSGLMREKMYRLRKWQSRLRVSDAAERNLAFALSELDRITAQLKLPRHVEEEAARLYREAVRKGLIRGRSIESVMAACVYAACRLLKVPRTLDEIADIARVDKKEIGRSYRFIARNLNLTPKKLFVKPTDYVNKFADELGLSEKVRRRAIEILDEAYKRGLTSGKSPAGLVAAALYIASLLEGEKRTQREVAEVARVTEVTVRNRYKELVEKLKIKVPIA

[2] = biological target: T2, CopR (Pyrococcus furiosus) (UniProt Q8U2U0); assay: DNase I footprinting; details: EMSA: 20 nM DNA, 40 mM HEPES pH 7.4, 80 mM (NH4)2SO4, 670 uM DTT, 20 ug/ml BSA, 6.7% glycerol, 50 ng HindIII-digested lambda DNA, 5 min 70 C; DNase I: 4.4 nM …
T2 sequence: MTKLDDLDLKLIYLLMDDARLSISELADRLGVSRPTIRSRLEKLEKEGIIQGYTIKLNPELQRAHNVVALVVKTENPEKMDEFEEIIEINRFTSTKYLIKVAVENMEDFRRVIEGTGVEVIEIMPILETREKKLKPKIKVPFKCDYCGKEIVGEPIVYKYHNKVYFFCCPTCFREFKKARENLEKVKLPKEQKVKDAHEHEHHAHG

[3] = biological target: CopR (PF0739), copper-sensing transcriptional regulator of Pyrococcus furiosus (Pyrococcus furiosus); assay: SEC; Superdex 200 10/300 GL in low salt buffer (40 mM HEPES pH 7.5, 80 mM ammonium sulfate, 1 mM EDTA, 10% glycerol); elution compared to standard calibration proteins
[4] = biological target: CopRΔTRASH (PF0739 variant lacking the metal-sensing TRASH domain) (Pyrococcus furiosus); assay: negative-stain transmission electron microscopy with 2D class averaging; 220 ng/μl protein, 2% uranyl acetate with 0.005% DDM; more than 50,000 particles classified in RELION 3.0; in the absence and presence of a DNA template
[5] = biological target: T3, CopRΔHIS (Pyrococcus furiosus) (UniProt Q8U2U0); assay: EMSA; details: EMSA: 20 nM DNA, 40 mM HEPES pH 7.4, 80 mM (NH4)2SO4, 670 uM DTT, 20 ug/ml BSA, 6.7% glycerol, 50 ng HindIII-digested lambda DNA, 5 min 70 C; DNase I: 4.4 nM …
T3 sequence: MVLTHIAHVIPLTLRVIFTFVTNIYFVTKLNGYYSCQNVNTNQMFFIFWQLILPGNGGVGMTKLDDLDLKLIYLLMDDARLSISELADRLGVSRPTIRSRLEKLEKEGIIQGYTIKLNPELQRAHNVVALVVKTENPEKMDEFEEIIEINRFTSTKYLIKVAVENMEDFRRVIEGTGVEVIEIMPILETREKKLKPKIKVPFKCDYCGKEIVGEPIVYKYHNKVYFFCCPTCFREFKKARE

[6] = biological target: T2, CopR (Pyrococcus furiosus); assay: EMSA; details: EMSA: 20 nM DNA, 40 mM HEPES pH 7.4, 80 mM (NH4)2SO4, 670 uM DTT, 20 ug/ml BSA, 6.7% glycerol, 50 ng HindIII-digested lambda DNA, 5 min 70 C; DNase I: 4.4 nM …
[7] = biological target: T4, CopRΔTRASH internal_change (Pyrococcus furiosus) (UniProt Q8U2U0); assay: EMSA; details: EMSA: 20 nM DNA, 40 mM HEPES pH 7.4, 80 mM (NH4)2SO4, 670 uM DTT, 20 ug/ml BSA, 6.7% glycerol, 50 ng HindIII-digested lambda DNA, 5 min 70 C; DNase I: 4.4 nM …
T4 sequence: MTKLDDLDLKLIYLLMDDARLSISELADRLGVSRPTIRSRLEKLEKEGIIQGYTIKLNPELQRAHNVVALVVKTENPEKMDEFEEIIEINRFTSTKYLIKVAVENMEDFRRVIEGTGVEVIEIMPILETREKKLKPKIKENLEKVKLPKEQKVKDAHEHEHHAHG

[8] = biological target: T5, CopRΔHISΔTRASH (Pyrococcus furiosus) (UniProt Q8U2U0); assay: EMSA; details: EMSA: 20 nM DNA, 40 mM HEPES pH 7.4, 80 mM (NH4)2SO4, 670 uM DTT, 20 ug/ml BSA, 6.7% glycerol, 50 ng HindIII-digested lambda DNA, 5 min 70 C; DNase I: 4.4 nM …
T5 sequence: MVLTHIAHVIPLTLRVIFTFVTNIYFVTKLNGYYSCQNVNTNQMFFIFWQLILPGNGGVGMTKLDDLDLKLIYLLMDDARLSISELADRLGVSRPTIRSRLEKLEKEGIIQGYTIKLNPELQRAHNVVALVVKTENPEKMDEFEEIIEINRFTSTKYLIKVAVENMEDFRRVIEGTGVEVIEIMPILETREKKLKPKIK

Substance: GAGTGATCTTCACTTTCGTCACCAATATTTACTTTGTGACGAAACTTAATGGGTATTATTCATGCCAAAATGTAAACACTAACCAAATGTTTTTTATATTTTGGCAACTAATACTCCCAGGGAATGGGGGTGTTGGAATGACCAAGTTAGATG (double strand) [copR/copA promoter region (DNase I footprint)]
binding [1]: binds | binding [2]: binds

stoichiometry N [3]: 8
Substance: CopR (PF0739), copper-sensing transcriptional regulator of Pyrococcus furiosus (natural protein)

stoichiometry N [4]: 8
Substance: CopRΔTRASH (PF0739 variant lacking the metal-sensing TRASH domain) (natural protein)

Substance: GAGTGATCTTCACTTTCGTCACCAATATTTACTTTGTGACGAAACTTAATGGGTATTATTCATGCCAAAATGTAAACACTAACCAAATGTTTTTTATATTTTGGCAACTAATACTCCCAGGGAATGGGGGTGTTGGAATGACCAAGTTAGATG (double strand) [copR/copA intergenic promoter region (EMSA)]
binding [5]: binds | binding [6]: binds | binding [7]: binds | binding [8]: binds
